Changes are numbered by the printed parent chain. Names may count otherwise. “Also recorded” adds a separate entry of the source.
B1: A453N: P. alba IspS variant A453N; pDW99, strain DW397, SEQ ID NO: 65 (protein)
chain: MEARRSANYEPNSWDYDYLLSSDTDESIEVYKDKAKKLEAEVRREINNEKAEFLTLLELIDNVQRLGLGYRFESDIRGALDRFVSSGGFDAVTKTSLHGTALSFRLLRQHGFEVSQEAFSGFKDQNGNFLENLKEDIKAILSLYEASFLALEGENILDEAKVFAISHLKELSEEKIGKELAEQVNHALELPLHRRTQRLEAVWSIEAYRKKEDANQVLLELAILDYNMIQSVYQRDLRETSRWWRRVGLATKLHFARDRLIESFYWAVGVAFEPQYSDCRNSVAKMFSFVTIIDDIYDVYGTLDELELFTDAVERWDVNAINDLPDYMKLCFLALYNTINEIAYDNLKDKGENILPYLTKAWADLCNAFLQEAKWLYNKSTPTFDDYFGNAWKSSSGPLQLVFAYFAVVQNIKKEEIENLQKYHDTISRPSHIFRLCNDLASASAEIARGETNNSVSCYMRTKGISEELATESVMNLIDETWKKMNKEKLGGSLFAKPFVETAINLARQSHCTYHNGDAHTSPDELTRKRVLSVITEPILPFERENLYFQGLEHHHHHH
B2: T536C: P. alba IspS variant T536C; pDW102, strain DW400, SEQ ID NO: 71 (protein)
chain: B1 chain with N453A, T536C
B3: SPC: P. alba MEA G491S L494P T536C (+) TEV; pDW112, SEQ ID NO: 91 (protein)
chain: B1 chain with N453A, G491S, L494P, T536C
modifications: TEV site
B4: wild type IspS: P. alba MEA (+) TEV isoprene synthase, MD09-163, strain MD09-167, SEQ ID NO: 63 (protein)
chain: B1 chain with N453A
modifications: TEV site
B5: SP: P. alba MEA G491S L494P (+) TEV; pDW110, SEQ ID NO: 87 (protein)
chain: B1 chain with N453A, G491S, L494P
modifications: TEV site

Legend:
[1] = DMAPP assay of site evaluation library (SEL) lysates with ELISA protein quantitation: specific activity ranked as performance index; format: biochemical; details: for isoprene synthase activity of variants relative to parent, in words: SEL analysis of P. alba IspS; for performance index: primary SEL screen, activity on DMAPP per unit weight relative to the parental molecule (parent = 1)
Procedure: 1. Prepared Patch Plates from Glycerol Stock Plates. Using a V&S 96 pin Replication Tool, cultures were patched onto a LB Agar 35 CMP/50 Kan large patch plates from overnight glycerol stock plates. Plates were incubated at 30° C. overnight for 20 to 24 hr. Cultures can be stored at 4° C. for up to a week.
2. Prepared Overnight Growth Plates. 500 mL of LB 35 CMP/50 Kan media were prepared. 300 μL/well of LB 35 CMP/50 Kan media were dispensed into deep 96 well plates (VWR). Using a V&S Replication Tool, the patch inoculum was transferred into deep 96 well plate by touching the tool pins to respective patch and using a circular motion to coat the pins with inoculum. The media was inoculated by dipping the tool then shaking the pin within the well. The overnight growth plates were sealed using a Breathe-Easier Sealing Membrane (Diversified Biotech). The plates were incubated in a Vertiga Shaking Incubator at 30° C. with shaking at 800 rpm overnight for 16 to 18 hr.
3. Prepared Day Growth Plate. Deep 96 well plates were prepared by dispensing 588 μL/well of LB 35 CMP/50 Kan media. Overnight growth plates were removed from the incubator. Overnight cultures were diluted 50-fold and 12 μL of overnight culture were transferred to day growth plates containing 588 μL/well of LB media containing antiobiotics. Overnight growth plates were sealed with new Breathe-Easier Sealing Membranes. Cultures were incubated at 30° C. and 800 rpm for 2.5 hr. Frozen 12 mM IPTG (Sigma) vials were removed from −20° C. and placed in a hood to thaw.
4. OD600 Plate Read of Overnight, Induction, and Harvest. 150 μL 1×PBS were dispensed into 96 well Costar Read Plates (#9017). 50 μL of culture samples were transferred to Read Plates. The OD600 reading was recorded using a Spectramax Plate Reader (Molecular Devices).
5. Induction. Electronic multi-channel pipettors were prepared to dispense 4×20 μL/well of IPTG (if 4× replicates). The multi-dispense option in the electronic pipettor was adjusted if more replicates was necessary. Thawed 12 mM IPTG was poured into 50 mL or 100 mL sterile reservoirs. 20 μL/well of IPTG into each 600 μL/well culture. Overnight growth plates were resealed. Cultures were incubated at 30° C. and 800 rpm for 4 hr. OD600 readings of plates were recorded according instructions above.
6. Harvest. 400 μL of induced culture were transferred to 800 μL Grenier storage plates. Plates were centrifuged at 3300 rpm for 20 min at 2° to 8° C. in a low speed benchtop centrifuge. Supernatants were discarded, pellets should stay in the conical bottom well. Residual supernatants were slapped out onto a paper towel on the benchtop. Plates were sealed with an aluminum foil membrane (Beckman-Coulter). Plates were covered with a plastic plate lid if available. Storage plates were labeled accordingly and stored frozen at −80° C.
Plates containing induced cell pellets were removed from the −80° C. freezer and allowed to thaw on the benchtop for 30 minutes prior to lysis. 200 μl of lysis buffer (50 mM Tris pH 8, 25 mM MgCl2, 74 μg/ml DNase I, 250 U/ml lysozyme, 0.1% Tween 20, 0.5 mM PMSF) was added to each pellet, and plates were incubated on an Eppendorf Thermomixer at 25° C. for 30 minutes at 1200 rpm. After lysis, plates were centrifuged at 3450 rpm for 15 minutes at 4° C. Supernatants were then removed and diluted 10-fold prior to DMAPP assay. 80 μl of the diluted supernatant was added to 20 μl of the DMAPP working stock (20 mM DMAPP in 0.1 M Phosphate Buffer pH 8.2, DMAPP triammonium salt, Cayman chemicals) in a Zinsser glass block. Blocks were then sealed with aluminum sealing membranes, and incubated in Thermomixers at 25° C. for 30 minutes at 450 rpm. Reactions were stopped by incubating blocks on Thermomixers at 70° C. for 12 minutes at 450 rpm. GC-MS was then used for headspace measurements to calculate the amount of isoprene produced by each lysates.
Headspace Assay. […]

[2] = Specific activity measurement of purified isoprene synthase variants (4 mM DMAPP, 30 C, GC-MS headspace); format: biochemical; details: for S.A. / Variant S.A./WT S.A.: 50 mM NaCl, 50 mM Tris pH = 8, 30° C.; for Variant S.A./WT S.A.: ratio to WT; for specific activity compared to WT isoprene synthase, in words: 30 C, purified enzyme
Procedure: 1. Initial Purification—Resuspend the pellet in 3 ml of fresh lysis buffer. Break cells by passing them through the French Press using the small cylinder. Centrifuge samples for 1 hour at 30,000×G and collect the supernatant. Retain pellet in order to test for presence of insoluble protein. Pre equilibrate 0.5 mL Ni Sepharose 6 Fast Flow resin (Amersham) in a 20 ml disposable column with 10 mL of Ni wash buffer. Add protein to column and shake for 60 min at 4 C to bind protein. Elute protein with 2.5 mL Ni elution buffer.
2. Buffer Exchange—Equilibrate a PD-10 column (GE Healthcare) with 25 mL of PD-10 buffer. Load protein on to column and elute with 3.5 mL of PD-10 buffer.
10 uL of purified enzyme was incubated with 4 mM DMAPP, 50 mM MgCl2 in a buffer containing 50 mM Tris and 50 mM NaCl (pH=8) to a final volume of 100 uL for 15 min. at 30 C in gas tight 2 mL vials. Reactions were terminated with the addition of 100 uL of […] EDTA, pH=8. Samples were analyzed by GC-MS to determine the concentration of isoprene in the headspace of the vials. All specific activity measurements were performed in triplicate.
(§1) Protein concentration was determined by measuring the absorbance of each protein solution at 280 nm on a Helwlett Pachard 8453 UV-Vis spectrophotometer and converting the absorbance to protein concentration using the extinction coefficient as determined on the Expasy website (Gasteiger E., Hoogland C., Gattiker A., Duvaud S., Wilkins M. R., Appel R. D., Bairoch A.; Protein Identification and Analysis Tools on the ExPASy Server; (In) John M. Walker (ed): The Proteomics Protocols Handbook, Humana Press (2005). pp. 571-607). The protein concentrations of isoprene synthase variants assayed for KM and kcat determination were verified by comparative gel electrophoresis of a dilution series of each protein (FIG. 61).

[3] = kcat, KM and Ki determination, rate vs [DMAPP], fit to uncompetitive substrate inhibition; format: biochemical; details: for KM compared to WT isoprene synthase, in words / rate profile vs [DMAPP] / Km / kcat: 1.25 to 20 mM DMAPP, 30 C; for Km / kcat / Ki: average of three trials ± one standard deviation; for kcat: in s^-1 (unit assumed); for Ki: uncompetitive substrate inhibition by DMAPP, read-out: KiDMAPP
Procedure: 10 uL of purified enzyme was incubated with DMAPP at concentrations ranging from 1.25 to 20 mM DMAPP in a buffer containing 50 mM Tris, 50 mM MgCl2 and 50 mM NaCl (pH=8) to a final volume of 100 uL for 15 min. at 30 C in gas tight 2 mL vials. Reactions were terminated with the addition of 100 uL of 250 mM EDTA, pH=8. Samples were analyzed by GC-MS to determine the concentration of isoprene in the headspace of the vials. Data were analyzed using Kaleidagraph and fit to following equation for uncompetitive substrate inhibition: rate/E=kcat*S/(KM+S*(1+S/Ki)). All kinetic assays were performed in triplicate.
as §1

[4] = Differential scanning calorimetry, thermal midpoint (Tm); format: physicochemical
Procedure: Excessive heat capacity curves were measured using an ultrasensitive scanning high-throughput microcalorimeter, VP-Cap DSC (MicroCal, Inc., Northampton, Mass.). The standard procedure for Differential Scanning calorimetry (DSC) measurements and the theory of the technique is previously published (Freire, E. (1995) Differential Scanning calorimetry Methods. Mol. Biol. 41, 191-218). Approximately 500 μL of 0.5 mg/ml IspS (from strain MD09-167) or variant IspS-L494P (from strain DW399) and IspS-T536F (from strain DW363) (in the absence or presence of 5 mM sodium pyrophosphate) were scanned over a 30-100° C. temperature range. The same sample was then re-scanned to check the reversibility of the process. For IspS the thermal unfolding process was irreversible. The buffer used was 50 mM HEPES, 5 mM MgCl2, pH 7.4, with and without 5 mM sodium pyrophosphate. Sodium pyrophosphate was included for its ability to function as a substrate analog. A 200° C./hr scan rate was used to minimize any artifacts that may result from aggregation. The thermal midpoint (Tm) of the DSC curves was used as an indicator of the thermal stability. The thermal melting curves and the melting points for the wild type IspS and variants are shown in FIG. 56 (buffer only) and 57 (with 5 mM sodium pyrophosphate).

Ki [3]	Molecule	isoprene synthase activity of variants relative to parent, in words [1]	performance index [1]	S.A. [2]	Variant S.A./WT S.A. [2]	specific activity compared to WT isoprene synthase, in words [2]	KM compared to WT isoprene synthase, in words [3]	rate profile vs [DMAPP] [3]	Km [3]	kcat [3]	thermal melting point (Tm) ([4]; buffer alone (50 mM HEPES, 5 mM MgCl2, pH 7.4))	thermal melting point (Tm) ([4]; in the presence of 5 mM sodium pyrophosphate)	reversibility of the thermal unfolding process ([4]; re-scan of the same sample)
–	B1	improved activity; also recorded: high performing	2.99	170 ± 30 nmol/mg/min	0.4	–	–	–	–	–	–	–	–
–	B2	improved isoprene synthase activity; also recorded: high performing	1.48	430 ± 10 nmol/mg/min	0.9	–	–	–	–	–	–	–	–
25 ± 21 mM	B3	–	–	630 ± 40 nmol/mg/min	1.3	increased specific activity; also recorded: greater than the WT isoprene synthase but less than the β isoprene synthase variant	less than the KM of the WT	uncompetitive substrate inhibition by DMAPP	3.5 ± 0.8 mM	1.5 ± 0.4	–	–	–
16 ± 9 mM	B4	–	–	480 ± 20 nmol/mg/min	1.0	–	–	uncompetitive substrate inhibition by DMAPP	7 ± 4 mM	1.5 ± 0.6	58.3 °C	54.7 °C	irreversible
18 ± 1 mM	B5	–	–	770 ± 40 nmol/mg/min	1.6	increased specific activity; also recorded: greater than the WT isoprene synthase but less than the β isoprene synthase variant	less than the KM of the WT	uncompetitive substrate inhibition by DMAPP	4.4 ± 0.3 mM	1.2 ± 0.1	–	–	–

Reference: US9175313B2, “Three-dimensional structure of isoprene synthase and its use thereof for generating variants” (Danisco US Inc., priority 2009, dated 2015)
